Test results from patent publication US20160090605A1 (ACADEMIA SINICA, published 2016).

T1: ER-body protein NAI2 (Arabidopsis, UniProt Q9LSB4 25-772, limits assumed)
T1 construct: also called AT3G15950
T1 sequence: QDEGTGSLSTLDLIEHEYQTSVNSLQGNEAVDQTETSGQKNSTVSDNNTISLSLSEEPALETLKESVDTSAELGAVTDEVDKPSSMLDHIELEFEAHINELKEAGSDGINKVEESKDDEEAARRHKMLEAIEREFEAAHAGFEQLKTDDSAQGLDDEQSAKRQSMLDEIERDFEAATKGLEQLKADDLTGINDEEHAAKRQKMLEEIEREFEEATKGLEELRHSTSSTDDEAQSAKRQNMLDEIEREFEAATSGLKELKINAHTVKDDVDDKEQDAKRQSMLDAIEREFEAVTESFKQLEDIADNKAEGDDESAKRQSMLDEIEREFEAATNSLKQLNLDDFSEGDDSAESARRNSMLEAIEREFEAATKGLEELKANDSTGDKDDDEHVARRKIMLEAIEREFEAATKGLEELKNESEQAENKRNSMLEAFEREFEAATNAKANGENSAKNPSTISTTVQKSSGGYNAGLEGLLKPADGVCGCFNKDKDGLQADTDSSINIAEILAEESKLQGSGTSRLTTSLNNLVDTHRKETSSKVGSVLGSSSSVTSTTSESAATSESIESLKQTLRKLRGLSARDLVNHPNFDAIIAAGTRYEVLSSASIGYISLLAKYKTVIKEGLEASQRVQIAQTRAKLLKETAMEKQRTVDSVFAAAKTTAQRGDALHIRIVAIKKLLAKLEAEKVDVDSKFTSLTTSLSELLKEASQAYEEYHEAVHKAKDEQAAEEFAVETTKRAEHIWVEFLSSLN

B1: At14a-like1 (AFL1), full length (other)
chain: MALSKDLMLKCSEDMMSAYKSACEEHPKLKSFDASLQQRTNKMIDSLTVEDKNGSSSPHDAHMELSKHLVEVTQGVADFITEIEDDVWDNQALKYLVLAYFENTKKTLEIFKTIENCVENAEMGQLLIREALAEFEKESAEKDVGGKKKKYEKTLEDLKSFKEMGDPFDGKVLTTQFERIKKQQESLLEEVSETRKKIQDEISNLEKKTLITNVVFGAAFAIVAVASIALIATGVGAAAGFGALAAPLLAAGWAGVYTTLDKKKDALNKQLEGLKKVEEIEESVEKGIKTNEEATETVSILVDGLEDRIKNMLKLVDNAIDHEDNEAATRIVLTQISKKVEKLTKKITEVGESVEDHSKLIAKARLQVLQKINR
notes: Full-length AFL1; In mbSUS it was a split-ubiquitin fusion expressed in yeast; In BiFC it was a fusion to a YFP half (YFPN or YFPC, the latter MYC-tagged); This entry also stands for native AFL1 in seedling extracts (47 kDa band; co-purified with YFP-AFL1); also called AT3G28270; Full Length AFL1
B2: AFL1 N-terminal fragment (amino acids 1 to 208) (other)
chain: MALSKDLMLKCSEDMMSAYKSACEEHPKLKSFDASLQQRTNKMIDSLTVEDKNGSSSPHDAHMELSKHLVEVTQGVADFITEIEDDVWDNQALKYLVLAYFENTKKTLEIFKTIENCVENAEMGQLLIREALAEFEKESAEKDVGGKKKKYEKTLEDLKSFKEMGDPFDGKVLTTQFERIKKQQESLLEEVSETRKKIQDEISNLEKK
notes: Yeast two hybrid bait in a ProQuest destination vector (printed as pDEST23); also called AFL1 N-terminus; N-terminal domain of AFL1

Tests used:
[1] = target: the molecule itself; test: mbSUS split-ubiquitin interaction assay, full length AFL1 with itself
Description: Mating-based Split-Ubiquitin System (mbSUS) assays were performed as previously described using vectors and yeast strains obtained from the Arabidopsis Biological Resource Center. Full length AFL1 as well as putative interactors were expressed in yeast strains THY.AP4 and THY.AP5, respectively, by recombinational in vivo cloning and plated on SC-Leu-Met or SC-Trp-Ura-Met (SC/+AHL) plates for selection. The interaction was tested by X-gal agarose overlay assay.

ER-body protein NAI2 = target: T1, ER-body protein NAI2; test: yeast two hybrid library screen (AFL1 N-terminus)
Description: A yeast two hybrid library was prepared using mRNA from seedlings exposed to −1.2 MPa low water potential stress for 96 h. The library was prepared using the Cloneminer II cDNA construction (Invitrogen) according to the manufacturer's instructions. Yeast two hybrid screening was performed using the ProQuest Two-hybrid system (Invitrogen) following manufacturer's instructions with an N-terminal fragment of AFL1 (amino acids 1 to 208) as bait. The bait fragment was cloned into destination vector pDEST23 and co-transformed into MaV203 along with clones from the cDNA library using LiAc X transformation. […] Colonies that grew on the selective media were re-streaked and subjected to β-galactosidase filter assay to confirm interaction. Out of approximately 8×10⁵ colony forming units screened, clones of PDI5, NAI2, and TSA1 were detected repeatedly. Most of these clones were C-terminal truncations. Full length cDNA clones of PDI5, NAI2 and TSA1 were obtained (using the cloning procedures described above) and confirmed to interact with the AFL1 bait construct in β-galactosidase filter assays.

Row | Binder | binding result [1] | binding result (ER-body protein NAI2)
1 | B1 | binds | –
2 | B2 | – | binds
